We go through four substances from US12723078.

For test [1], the target named is recombinant LILRB1 (human) (UniProt Q8NHL6). In words: ELISA, control. (In general: An ELISA detects its analyte on a solid surface through an enzyme-linked reagent.)
Test [2] shares this target. In words: Octet RED96, LILRB1 at 100, 33.3, 11.1 and 3.7 nM.
Another test deals with LILRA1 on reporter cells (UniProt O75019). In words: flow cytometry on 2B4 cells expressing the LILR, PE. (Flow cytometry measures light scatter and fluorescence of single cells or particles in a stream.)
LILRA1 on reporter cells, sequence (O75019 17-489 limits assumed): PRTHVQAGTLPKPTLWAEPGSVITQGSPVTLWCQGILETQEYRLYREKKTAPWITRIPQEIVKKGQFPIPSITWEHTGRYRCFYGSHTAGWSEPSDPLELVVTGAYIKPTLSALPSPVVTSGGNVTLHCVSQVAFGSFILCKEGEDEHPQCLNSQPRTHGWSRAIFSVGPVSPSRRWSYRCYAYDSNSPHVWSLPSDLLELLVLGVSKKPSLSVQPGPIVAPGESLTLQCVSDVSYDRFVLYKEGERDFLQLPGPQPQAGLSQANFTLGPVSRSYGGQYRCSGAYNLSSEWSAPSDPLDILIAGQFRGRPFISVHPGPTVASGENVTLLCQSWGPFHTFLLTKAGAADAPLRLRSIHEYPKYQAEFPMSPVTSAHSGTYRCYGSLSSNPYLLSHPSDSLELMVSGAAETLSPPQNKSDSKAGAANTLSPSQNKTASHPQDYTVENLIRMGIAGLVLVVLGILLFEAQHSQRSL
A further test deals with LILRA2 on reporter cells (UniProt Q8N149). The test is described as above.
LILRA2 on reporter cells, sequence (Q8N149 24-483): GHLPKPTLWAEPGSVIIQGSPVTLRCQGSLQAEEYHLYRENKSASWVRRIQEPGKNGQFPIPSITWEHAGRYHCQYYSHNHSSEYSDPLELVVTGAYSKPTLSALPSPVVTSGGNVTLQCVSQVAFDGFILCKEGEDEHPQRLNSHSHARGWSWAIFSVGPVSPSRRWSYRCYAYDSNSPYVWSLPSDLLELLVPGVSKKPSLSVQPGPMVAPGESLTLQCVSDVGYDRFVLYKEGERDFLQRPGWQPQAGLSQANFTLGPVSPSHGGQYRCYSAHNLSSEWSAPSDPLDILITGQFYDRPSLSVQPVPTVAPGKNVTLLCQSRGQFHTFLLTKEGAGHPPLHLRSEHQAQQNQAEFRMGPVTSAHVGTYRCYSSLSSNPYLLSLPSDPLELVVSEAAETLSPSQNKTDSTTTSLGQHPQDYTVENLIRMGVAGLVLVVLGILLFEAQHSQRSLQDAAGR
In another test the target is LILRA4 on reporter cells (UniProt P59901). The test is described as above.
LILRA4 on reporter cells, sequence (P59901 24-499): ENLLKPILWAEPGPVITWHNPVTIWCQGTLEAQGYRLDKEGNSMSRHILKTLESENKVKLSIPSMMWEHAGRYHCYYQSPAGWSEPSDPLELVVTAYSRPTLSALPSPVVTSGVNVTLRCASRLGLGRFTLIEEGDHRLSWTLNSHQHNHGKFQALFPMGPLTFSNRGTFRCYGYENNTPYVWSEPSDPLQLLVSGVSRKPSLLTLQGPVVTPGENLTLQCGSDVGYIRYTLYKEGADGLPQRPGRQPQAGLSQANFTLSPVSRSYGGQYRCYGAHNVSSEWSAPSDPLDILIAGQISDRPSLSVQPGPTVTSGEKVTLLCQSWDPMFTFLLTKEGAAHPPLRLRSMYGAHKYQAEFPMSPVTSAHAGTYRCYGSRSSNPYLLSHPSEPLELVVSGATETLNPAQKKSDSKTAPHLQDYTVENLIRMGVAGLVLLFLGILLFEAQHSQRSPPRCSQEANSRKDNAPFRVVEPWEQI
The target in another test is LILRA5 on reporter cells (UniProt A6NI73). Described as above.
LILRA5 on reporter cells, sequence (A6NI73 42-299): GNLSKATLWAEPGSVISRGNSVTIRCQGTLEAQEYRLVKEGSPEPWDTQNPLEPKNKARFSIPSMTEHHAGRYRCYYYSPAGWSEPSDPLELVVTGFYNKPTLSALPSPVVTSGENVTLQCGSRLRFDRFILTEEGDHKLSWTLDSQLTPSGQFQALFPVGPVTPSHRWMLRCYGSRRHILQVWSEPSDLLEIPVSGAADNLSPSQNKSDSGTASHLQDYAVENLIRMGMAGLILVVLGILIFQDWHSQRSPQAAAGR
A further test has as its target LILRA6 on reporter cells (UniProt Q6PI73). The test is described as above.
In test [3] the target is LILRB1 expressed on cell surface (human) (UniProt Q8NHL6). Described as above.
LILRB1 expressed on cell surface (human), sequence (Q8NHL6 24-650 limits assumed): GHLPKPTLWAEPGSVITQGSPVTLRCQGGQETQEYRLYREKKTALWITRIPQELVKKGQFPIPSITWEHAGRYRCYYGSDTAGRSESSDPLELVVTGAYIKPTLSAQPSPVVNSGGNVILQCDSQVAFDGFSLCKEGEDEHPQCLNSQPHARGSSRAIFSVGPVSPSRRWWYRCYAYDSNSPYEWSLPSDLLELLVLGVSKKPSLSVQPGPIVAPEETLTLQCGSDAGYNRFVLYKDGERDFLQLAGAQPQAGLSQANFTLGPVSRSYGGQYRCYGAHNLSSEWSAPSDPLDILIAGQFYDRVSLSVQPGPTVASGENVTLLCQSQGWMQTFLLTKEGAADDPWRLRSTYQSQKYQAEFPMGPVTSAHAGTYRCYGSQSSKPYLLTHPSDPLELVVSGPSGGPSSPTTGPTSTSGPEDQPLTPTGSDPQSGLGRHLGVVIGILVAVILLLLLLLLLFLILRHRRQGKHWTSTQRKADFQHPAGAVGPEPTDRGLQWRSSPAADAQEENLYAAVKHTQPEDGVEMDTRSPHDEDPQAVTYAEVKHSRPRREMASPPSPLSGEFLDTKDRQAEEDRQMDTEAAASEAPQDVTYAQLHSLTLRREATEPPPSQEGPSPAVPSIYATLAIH
In a further test the target is LILRB2 on reporter cells (UniProt Q8N423). The description is as above.
LILRB2 on reporter cells, sequence (Q8N423 22-597): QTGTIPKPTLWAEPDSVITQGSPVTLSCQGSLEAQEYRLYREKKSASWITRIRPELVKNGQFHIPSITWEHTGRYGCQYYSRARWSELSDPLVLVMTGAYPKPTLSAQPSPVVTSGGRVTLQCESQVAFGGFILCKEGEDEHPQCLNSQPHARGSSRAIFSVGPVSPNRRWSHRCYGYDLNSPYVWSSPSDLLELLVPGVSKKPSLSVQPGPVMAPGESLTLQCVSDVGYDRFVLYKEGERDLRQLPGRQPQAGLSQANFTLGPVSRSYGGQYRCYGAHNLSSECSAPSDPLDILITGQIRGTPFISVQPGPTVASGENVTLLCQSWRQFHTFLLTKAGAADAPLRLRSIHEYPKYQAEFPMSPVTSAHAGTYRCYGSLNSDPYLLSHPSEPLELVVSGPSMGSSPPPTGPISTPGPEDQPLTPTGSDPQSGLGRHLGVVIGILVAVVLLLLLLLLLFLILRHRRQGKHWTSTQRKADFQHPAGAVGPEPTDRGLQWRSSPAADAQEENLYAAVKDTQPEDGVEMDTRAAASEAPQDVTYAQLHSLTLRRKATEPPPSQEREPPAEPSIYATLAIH
A further test concerns the target LILRB3 on reporter cells (UniProt O75022). The test is described as above.
In another test the target is LILRB4 on reporter cells (UniProt Q8NHJ6). The description is as above.
In the next test the target is LILRB5 on reporter cells (UniProt O75023). The test is described as above.
LILRB5 on reporter cells, sequence (O75023 24-590 limits assumed): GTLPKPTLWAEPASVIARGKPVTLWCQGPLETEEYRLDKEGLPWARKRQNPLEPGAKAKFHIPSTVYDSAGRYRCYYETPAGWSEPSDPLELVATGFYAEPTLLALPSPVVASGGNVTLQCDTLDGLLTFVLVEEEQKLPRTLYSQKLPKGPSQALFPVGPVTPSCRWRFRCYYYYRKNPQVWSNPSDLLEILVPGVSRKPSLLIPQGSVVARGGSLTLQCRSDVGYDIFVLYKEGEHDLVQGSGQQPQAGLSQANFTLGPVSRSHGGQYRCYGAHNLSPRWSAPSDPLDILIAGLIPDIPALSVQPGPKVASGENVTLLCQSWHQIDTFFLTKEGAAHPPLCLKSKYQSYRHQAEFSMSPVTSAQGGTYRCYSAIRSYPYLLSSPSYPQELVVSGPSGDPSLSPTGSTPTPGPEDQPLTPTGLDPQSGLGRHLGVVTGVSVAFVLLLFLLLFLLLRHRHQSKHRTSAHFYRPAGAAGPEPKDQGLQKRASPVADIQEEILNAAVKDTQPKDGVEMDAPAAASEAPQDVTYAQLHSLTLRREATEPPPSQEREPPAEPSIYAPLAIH

LILRA6 on reporter cells, sequence (Q6PI73 24-481): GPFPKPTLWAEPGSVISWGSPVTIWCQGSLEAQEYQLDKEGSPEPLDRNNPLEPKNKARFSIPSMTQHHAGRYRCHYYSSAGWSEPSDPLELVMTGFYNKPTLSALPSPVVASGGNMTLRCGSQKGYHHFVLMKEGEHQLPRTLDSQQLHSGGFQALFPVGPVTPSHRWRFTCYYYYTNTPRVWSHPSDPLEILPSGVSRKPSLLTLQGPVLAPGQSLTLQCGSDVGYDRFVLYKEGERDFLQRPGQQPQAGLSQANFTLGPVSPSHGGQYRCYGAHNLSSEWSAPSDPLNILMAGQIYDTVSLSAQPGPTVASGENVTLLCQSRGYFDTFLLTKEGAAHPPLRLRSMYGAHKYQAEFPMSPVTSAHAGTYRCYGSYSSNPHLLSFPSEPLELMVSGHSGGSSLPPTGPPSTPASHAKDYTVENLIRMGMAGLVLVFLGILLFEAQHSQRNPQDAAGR
recombinant LILRB1 (human), sequence (Q8NHL6 24-461 limits assumed): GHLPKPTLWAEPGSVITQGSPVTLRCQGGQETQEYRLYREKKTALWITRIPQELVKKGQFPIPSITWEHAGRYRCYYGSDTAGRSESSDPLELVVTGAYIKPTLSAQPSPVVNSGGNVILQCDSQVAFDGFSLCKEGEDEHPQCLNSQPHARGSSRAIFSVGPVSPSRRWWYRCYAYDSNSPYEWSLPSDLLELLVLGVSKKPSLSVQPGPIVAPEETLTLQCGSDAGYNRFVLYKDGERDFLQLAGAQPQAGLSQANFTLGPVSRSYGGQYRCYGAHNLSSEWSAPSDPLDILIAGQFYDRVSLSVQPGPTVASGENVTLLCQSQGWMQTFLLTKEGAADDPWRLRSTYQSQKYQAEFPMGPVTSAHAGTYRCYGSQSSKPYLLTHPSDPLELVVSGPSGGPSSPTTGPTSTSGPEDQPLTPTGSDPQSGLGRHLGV

As to Ctrl, in test [1], the OD450 turned out to be 0.1 OD450.
Turning to “GHI/75 (commercial anti-LILRB1 monoclonal antibody)”, the Kd in [2] was determined as 5.13 nM. Moreover, the percent of cells in the gate was 1.22% in the test with LILRA1 on reporter cells; 1.25% with LILRA2 on reporter cells; 0.16% with LILRA4 on reporter cells; 0.219% in the test with LILRA5 on reporter cells; 0.273% with LILRA6 on reporter cells; 98.8% in test [3]. In addition, the percent of cells in the gate in the test with LILRB2 on reporter cells amounted to 1.58%; in the test with LILRB3 on reporter cells, 0.867%; in the test with LILRB4 on reporter cells, 0.524%; with LILRB5 on reporter cells, 0.558%.
Turning to “HP-F1 (commercial anti-LILRB1 monoclonal antibody)”, in test [2], the dissociation constant (Kd) was 8.26 nM. Further, the percent of cells in the gate in the test with LILRA1 on reporter cells is 80.8%; in the test with LILRA2 on reporter cells, 85.3%; with LILRA4 on reporter cells, 0.301%; in the test with LILRA5 on reporter cells it was 0.343%; in the test with LILRA6 on reporter cells it was 0.144%; in test [3] it was 98.5%. Further, the percent of cells in the gate came to 1.52% with LILRB2 on reporter cells, 0.196% with LILRB3 on reporter cells, 0.0568% with LILRB4 on reporter cells and 0.0127% with LILRB5 on reporter cells.
Regarding R&D 292319 (antibody), the percent of cells in the gate with LILRA1 on reporter cells came out at 0.249%; with LILRA2 on reporter cells, 0.334%; with LILRA4 on reporter cells it was 0.27%; with LILRA5 on reporter cells, 0.282%; with LILRA6 on reporter cells, 0.199%; in test [3], 96.3%. For the same substance, the percent of cells in the gate with LILRB2 on reporter cells came to 0.65%; with LILRB3 on reporter cells, 0.239%; with LILRB4 on reporter cells it was 0.466%; with LILRB5 on reporter cells it was 0.359%.

In general, Kd refers to the equilibrium constant for the complex coming apart.
